The target in data set [1] is T1, AMP-dependent ACS (Mthe_1194) (Methanothrix thermoacetophila, UniProt A0B8F1).
T1 construct: gene acsA; full-length gene in pASK-IBA5, N-terminal Strep-tag II, E. coli BL21 (DE3) pLysS; approximately 75 kDa on SDS gel
T1 sequence (A0B8F1 1-659): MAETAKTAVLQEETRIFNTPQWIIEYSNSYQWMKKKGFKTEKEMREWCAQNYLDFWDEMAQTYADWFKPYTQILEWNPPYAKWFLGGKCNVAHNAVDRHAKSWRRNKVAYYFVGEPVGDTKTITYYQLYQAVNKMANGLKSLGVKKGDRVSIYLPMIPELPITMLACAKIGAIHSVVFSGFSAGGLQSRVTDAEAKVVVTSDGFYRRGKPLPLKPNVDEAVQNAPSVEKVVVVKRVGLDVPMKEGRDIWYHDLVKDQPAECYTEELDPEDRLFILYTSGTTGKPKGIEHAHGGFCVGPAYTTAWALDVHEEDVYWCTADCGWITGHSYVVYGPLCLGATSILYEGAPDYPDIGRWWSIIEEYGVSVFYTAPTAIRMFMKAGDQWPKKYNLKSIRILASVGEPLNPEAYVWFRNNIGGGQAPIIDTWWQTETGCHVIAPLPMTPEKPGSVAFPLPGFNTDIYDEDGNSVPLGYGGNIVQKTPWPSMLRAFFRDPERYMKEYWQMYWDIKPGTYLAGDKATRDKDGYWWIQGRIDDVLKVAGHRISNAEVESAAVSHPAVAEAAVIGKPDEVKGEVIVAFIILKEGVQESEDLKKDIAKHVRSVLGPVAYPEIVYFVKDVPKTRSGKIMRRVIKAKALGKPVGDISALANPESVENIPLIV
Description: coupled assay via auxiliary enzymes (myokinase, pyruvate kinase, lactate dehydrogenase), NADH […] nm. The conditions noted are these: read-out: 50% reduction of the reaction rate. In kind it is biochemical.

The target in data set [2] is T1, AMP-dependent ACS (Mthe_1194). Description: discontinuous pyrophosphate detection (molybdate / Eikonogen, […] nm). The class given is biochemical. To be noted: co-substrates ATP and CoA; 55°C.
Substrate in data set [3]: CC(=O)O
Description: purified protein. To be noted: 50 mM HEPES pH 7.5, 5 mM MgCl2, 1 mM CoA, 2.5 mM ATP, 55°C.

Substrate in data set [4]: CC(C)(COP(=O)(O)OP(=O)(O)OC[C@H]1O[C@@H](n2cnc3c(N)ncnc32)[C@H](O)[C@@H]1OP(=O)(O)O)[C@@H](O)C(=O)NCCC(=O)NCCS
Description: purified protein. The class given is biochemical, Methanothrix thermoacetophila. To be noted: co-substrates acetate and ATP, 55°C.

Substrate in data set [5]: Nc1ncnc2c1ncn2[C@@H]1O[C@H](COP(=O)(O)OP(=O)(O)OP(=O)(O)O)[C@@H](O)[C@H]1O
Description: purified protein. To be noted: co-substrates acetate and CoA, 55°C. In kind it is biochemical, Methanothrix thermoacetophila.

For `O=P(O)(O)OP(=O)(O)O` [PPi], in data set [1], the IC50 was roughly 250 µM.

Regarding `CCC(=O)O` [propionate], the “discontinuous pyrophosphate detection (molybdate / Eikonogen, 580 nm)” value in data set [2] is listed as “A reaction was also observed with propionate”.

B1: AMP-dependent ACS (Mthe_1194) (Methanothrix thermoacetophila PT) (protein)
chain: MAETAKTAVLQEETRIFNTPQWIIEYSNSYQWMKKKGFKTEKEMREWCAQNYLDFWDEMAQTYADWFKPYTQILEWNPPYAKWFLGGKCNVAHNAVDRHAKSWRRNKVAYYFVGEPVGDTKTITYYQLYQAVNKMANGLKSLGVKKGDRVSIYLPMIPELPITMLACAKIGAIHSVVFSGFSAGGLQSRVTDAEAKVVVTSDGFYRRGKPLPLKPNVDEAVQNAPSVEKVVVVKRVGLDVPMKEGRDIWYHDLVKDQPAECYTEELDPEDRLFILYTSGTTGKPKGIEHAHGGFCVGPAYTTAWALDVHEEDVYWCTADCGWITGHSYVVYGPLCLGATSILYEGAPDYPDIGRWWSIIEEYGVSVFYTAPTAIRMFMKAGDQWPKKYNLKSIRILASVGEPLNPEAYVWFRNNIGGGQAPIIDTWWQTETGCHVIAPLPMTPEKPGSVAFPLPGFNTDIYDEDGNSVPLGYGGNIVQKTPWPSMLRAFFRDPERYMKEYWQMYWDIKPGTYLAGDKATRDKDGYWWIQGRIDDVLKVAGHRISNAEVESAAVSHPAVAEAAVIGKPDEVKGEVIVAFIILKEGVQESEDLKKDIAKHVRSVLGPVAYPEIVYFVKDVPKTRSGKIMRRVIKAKALGKPVGDISALANPESVENIPLIV
notes: full-length gene in pASK-IBA5, N-terminal Strep-tag II, E. coli BL21 (DE3) pLysS; approximately 75 kDa on SDS gel
Regarding B1, the Km in “purified protein [3]” amounted to 400 µM; in the data set “purified protein [4]”, 14.5 µM; in “purified protein [5]” it was 20 µM.

Source of the values: article PMC3426162 (Archaea, 2012).
